According to patent US10280218B2, “Antibodies binding to BMP4, and uses thereof” (ACADEMISCH MEDISCH CENTRUM, priority 2014, dated 2019):

B1: C4-C4 (antibody, V domains shown)
V domain 1: EVQLVESGGGLVQAGGSLRLSCAASGRTFSTYAMGWFRQAPGKEREFVAAISKGGGITYYSDSVRGRFTISKENAKNTVYLQMNSLKPEDTAVYYCAADPVSSVAKSPVAYPYWGQGTQVTVSS
V domain 2: EVQLVESGGGLVQAGGSLRLSCAASGRTFSTYAMGWFRQAPGKEREFVAAISKGGGITYYSDSVRGRFTISKENAKNTVYLQMNSLKPEDTAVYYCAADPVSSVAKSPVAYPYWGQGTQVTVSS
B2: BMPR1a (protein)
chain: QNLDSMLHGTGMKSDSDQKKSENGVTLAPEDTLPFLKCYCSGHCPDDAINNTCITNGHCFAIIEEDDQGETTLASGCMKYEGSDFQCKDSPKAQLRRTIECCRTNLCNQYLQPTLPPVVIGPFFDGSIR
B3: E7 (antibody, V domains shown)
VH: EVQLVESGGGLVQAGGSLRLSCAASGSIRGFVAMAWYRQAPGKQREWVATVTNGGTLYGDSVKGRFTGSRDNAKNTVYLQMNSLKPEDTAVYYCALRQIGASGYDYWGQGTQVTVSS
B4: C8-C8 (antibody, V domains shown)
V domain 1: EVQLVESGGGLVQAGGSLRLSCAASGRTFRINDMGWYRQAPGKSRDMVARITSGGNTNYADSVKGRFTISRDNAKNTVYLQMNSLKPEDTAVYYCNADGLRFDSTRYRPFDSWGQGTQVTVSS
V domain 2: EVQLVESGGGLVQAGGSLRLSCAASGRTFRINDMGWYRQAPGKSRDMVARITSGGNTNYADSVKGRFTISRDNAKNTVYLQMNSLKPEDTAVYYCNADGLRFDSTRYRPFDSWGQGTQVTVSS
B5: C8-E7 (antibody, V domains shown)
V domain 1: EVQLVESGGGLVQAGGSLRLSCAASGRTFRINDMGWYRQAPGKSRDMVARITSGGNTNYADSVKGRFTISRDNAKNTVYLQMNSLKPEDTAVYYCNADGLRFDSTRYRPFDSWGQGTQVTVSS
V domain 2: EVQLVESGGGLVQAGGSLRLSCAASGSIRGFVAMAWYRQAPGKQREWVATVTNGGTLYGDSVKGRFTGSRDNAKNTVYLQMNSLKPEDTAVYYCALRQIGASGYDYWGQGTQVTVSS
B6: C8 (antibody, V domains shown)
VH: EVQLVESGGGLVQAGGSLRLSCAASGRTFRINDMGWYRQAPGKSRDMVARITSGGNTNYADSVKGRFTISRDNAKNTVYLQMNSLKPEDTAVYYCNADGLRFDSTRYRPFDSWGQGTQVTVSS

Legend:
BMP2 = biological target: T1, BMP2 (human); test: SPR
T1 chain: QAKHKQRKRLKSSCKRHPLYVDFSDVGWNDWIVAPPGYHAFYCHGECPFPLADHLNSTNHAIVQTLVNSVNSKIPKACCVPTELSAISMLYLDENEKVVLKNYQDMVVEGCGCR

BMP4 = biological target: T2, BMP4 (human); test: SPR
T2 chain: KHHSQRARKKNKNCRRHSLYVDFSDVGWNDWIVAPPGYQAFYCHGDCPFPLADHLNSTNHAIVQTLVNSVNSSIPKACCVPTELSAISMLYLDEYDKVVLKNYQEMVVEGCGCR

Binder | Kd (BMP2) [nM] | Kd (BMP4) [nM]
B1 | 2.15 | 0.0097
B2 | – | 0.635
B3 | 1.07 | 0.512
B4 | 0.0628 | 0.031
B5 | 0.554 | 0.099
B6 | 0.88 | 0.392
